Here are results for two molecules from US20070178460A1 (ECOLE POLYTECHNIQUE FEDERALE DE LAUSANNE, published 2007).

Common to all, as to experiment: split-Trp growth complementation in trp1 yeast EGY48
One test deals with T1, Sec63p-^44Ctrp (Saccharomyces cerevisiae, UniProt P14906 1-663).
T1 construct: whole, on cells; Expressed in yeast EGY48 from pRS316CUP1 under the PCUP1-promoter; also called Sec63p-Ctrp; SEC63-^44Ctrp; not shown: HA tag at the C terminus of Trp1p
T1 sequence: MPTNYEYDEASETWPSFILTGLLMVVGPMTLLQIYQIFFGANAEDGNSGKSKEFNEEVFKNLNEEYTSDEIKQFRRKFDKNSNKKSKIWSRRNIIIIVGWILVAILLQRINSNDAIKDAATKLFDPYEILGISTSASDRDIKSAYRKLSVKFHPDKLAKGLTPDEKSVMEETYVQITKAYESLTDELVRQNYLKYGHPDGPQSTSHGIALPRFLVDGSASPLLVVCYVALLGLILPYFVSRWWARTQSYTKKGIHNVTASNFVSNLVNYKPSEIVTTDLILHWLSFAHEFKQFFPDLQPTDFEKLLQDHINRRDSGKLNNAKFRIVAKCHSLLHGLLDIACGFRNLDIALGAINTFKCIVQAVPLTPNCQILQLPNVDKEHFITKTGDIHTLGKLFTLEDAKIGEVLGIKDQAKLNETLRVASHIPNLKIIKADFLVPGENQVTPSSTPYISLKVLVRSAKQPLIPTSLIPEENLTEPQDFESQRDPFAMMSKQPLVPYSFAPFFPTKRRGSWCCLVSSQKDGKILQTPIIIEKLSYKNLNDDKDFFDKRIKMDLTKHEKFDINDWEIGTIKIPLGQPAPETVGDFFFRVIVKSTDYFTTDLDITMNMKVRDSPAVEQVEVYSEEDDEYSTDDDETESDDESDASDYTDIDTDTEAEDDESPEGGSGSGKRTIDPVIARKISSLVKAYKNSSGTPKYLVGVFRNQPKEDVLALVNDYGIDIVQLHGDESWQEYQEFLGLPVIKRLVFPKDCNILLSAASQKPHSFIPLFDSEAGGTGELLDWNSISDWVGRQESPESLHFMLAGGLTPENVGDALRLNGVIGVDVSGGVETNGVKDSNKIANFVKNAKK
An excerpt: (§1) To monitor the interaction between Sec62p and Sec63p, trp1 yeast strains expressing pairs of matching Nₜᵣₚ-Sec62p and Sec63p-Cₜᵣₚ fusion proteins were spotted on selective plates lacking tryptophan (FIG. 5). […] To verify that the observed complementation of tryptophan auxotrophy is a result of the interaction between the Sec62p and Sec63p moieties of the fusion proteins, we fused the C-terminal fragments of split-Trp⁴⁴ and split-Trp¹⁸⁷ to the cytoplasmic site of Ste14p (FIG. 4B). Ste14p is a membrane protein of the ER that is known to interact with neither Sec62p nor Sec63p (FIG. 4B) (cf. Wittke, S., Lewke, N., Muller, S., and Johnsson, N. (1999), Mol Biol Cell 10, 2519-2530). No growth on plates lacking tryptophan was observed when matching pairs of Sec62p and Ste14p fusion proteins were co-expressed at 23° C. or 30° C. for 10 days (FIG. 5). The cellular amount of Ste14p-⁴⁴Cₜᵣₚ is roughly 2-3 fold lower than the amount of Sec63p-⁴⁴Cₜᵣₚ as determined by western blotting (data not shown). Since this relatively small effect cannot account for the clear growth difference between the strains expressing either ⁴⁴Nₜᵣₚ-Sec62p/Sec63p-⁴⁴Cₜᵣₚ or ⁴⁴Nₜᵣₚ-Sec62p/Ste14p-⁴⁴Cₜᵣₚ, we conclude that the ⁴⁴Nₜᵣₚ-Sec62p/Sec63p-⁴⁴Cₜᵣₚ interaction signal is specific.

In a further test the target is T2, Ste14p-^44Ctrp (Saccharomyces cerevisiae, UniProt P32584 1-239).
T2 construct: whole, on cells; Control fusion; Ctrp fused to the cytoplasmic site of Ste14p; also called Ste14p-Ctrp; STE14-^44Ctrp; not shown: HA tag at the C terminus of Trp1p
T2 sequence: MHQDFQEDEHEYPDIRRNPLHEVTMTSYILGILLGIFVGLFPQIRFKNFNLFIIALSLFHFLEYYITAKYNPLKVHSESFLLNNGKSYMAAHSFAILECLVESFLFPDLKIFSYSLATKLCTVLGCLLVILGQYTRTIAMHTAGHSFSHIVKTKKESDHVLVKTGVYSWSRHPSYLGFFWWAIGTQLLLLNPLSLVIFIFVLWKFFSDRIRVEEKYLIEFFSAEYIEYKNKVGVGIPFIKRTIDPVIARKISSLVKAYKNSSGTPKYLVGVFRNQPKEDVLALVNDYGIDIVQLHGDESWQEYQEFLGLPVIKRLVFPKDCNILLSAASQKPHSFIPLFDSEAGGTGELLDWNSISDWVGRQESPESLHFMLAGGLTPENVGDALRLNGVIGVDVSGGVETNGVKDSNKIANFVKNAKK
Text: as §1

The next test addresses T3, ^187Ntrp-Sec62p (Saccharomyces cerevisiae, UniProt P21825 2-274).
T3 construct: whole, on cells; Expressed in yeast EGY48 from pRS315CUP1 under the PCUP1-promoter; not shown: 6x His tag at the N-terminus of Ntrp
T3 sequence: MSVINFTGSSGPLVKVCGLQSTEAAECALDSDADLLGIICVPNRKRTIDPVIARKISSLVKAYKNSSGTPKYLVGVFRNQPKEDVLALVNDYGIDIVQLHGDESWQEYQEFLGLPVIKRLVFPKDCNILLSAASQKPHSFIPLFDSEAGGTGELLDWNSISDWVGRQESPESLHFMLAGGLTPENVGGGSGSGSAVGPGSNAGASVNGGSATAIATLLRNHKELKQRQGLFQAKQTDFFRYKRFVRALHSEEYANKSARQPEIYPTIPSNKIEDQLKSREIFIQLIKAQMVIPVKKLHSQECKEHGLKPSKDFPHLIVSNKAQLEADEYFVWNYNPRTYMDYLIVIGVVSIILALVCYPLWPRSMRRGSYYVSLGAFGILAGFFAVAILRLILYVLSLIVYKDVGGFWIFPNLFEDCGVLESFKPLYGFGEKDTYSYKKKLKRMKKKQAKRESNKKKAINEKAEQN
Text: as §1

B1: ^44Ntrp-Sec62p (other, Saccharomyces cerevisiae)
chain: MSVINFTCSSGPLVKVCGLQSTEAAECALDSDADLLGIICVPNRGGSGSGSAVGPGSNAGASVNGGSATAIATLLRNHKELKQRQGLFQAKQTDFFRYKRFVRALHSEEYANKSARQPEIYPTIPSNKIEDQLKSREIFIQLIKAQMVIPVKKLHSQECKEHGLKPSKDFPHLIVSNKAQLEADEYFVWNYNPRTYMDYLIVIGVVSIILALVCYPLWPRSMRRGSYYVSLGAFGILAGFFAVAILRLILYVLSLIVYKDVGGFWIFPNLFEDCGVLESFKPLYGFGEKDTYSYKKKLKRMKKKQAKRESNKKKAINEKAEQN
notes: whole, on cells; Expressed in yeast EGY48 from pRS315CUP1 under the PCUP1-promoter; Ntrp at the N terminus of Sec62p; not shown: 6x His tag at the N-terminus of Ntrp
Turning to B1, the figures for the binding result with Sec63p-^44Ctrp and with Ste14p-^44Ctrp were “binds” and “no binding”, respectively.

B2: Ste14p-^187Ctrp (other, Saccharomyces cerevisiae)
chain: MHQDFQEDEHEYPDIRRNPLHEVTMTSYILGILLGIFVGLFPQIRFKNFNLFIIALSLFHFLEYYITAKYNPLKVHSESFLLNNGKSYMAAHSFAILECLVESFLFPDLKIFSYSLATKLCTVLGCLLVILGQYTRTIAMHTAGHSFSHIVKTKKESDHVLVKTGVYSWSRHPSYLGFFWWAIGTQLLLLNPLSLVIFIFVLWKFFSDRIRVEEKYLIEFFSAEYIEYKNKVGVGIPFIDALRLNGVIGVDVSGGVETNGVKDSNKIANFVKNAKK
notes: whole, on cells; Control fusion; Ctrp fused to the cytoplasmic site of Ste14p; also called Ste14p-Ctrp; not shown: HA tag at the C terminus of Trp1p
On to B2, for which the binding result with ^187Ntrp-Sec62p was “no binding”.
